The results in this text go back to US20060233808A1 (published 2006).

The assay has as its target T1, EGF receptor on human A431 cancer cells (human, UniProt P00533 25-1210).
T1 construct: whole, on cells; also called epidermal growth factor receptor; ErbB1
Kind of assay: competition assay on A431 cells, Mab425 fixed at 6.67 nM as competitor, Peptabody EGF 0.1 to 200 nM.

B1: Peptabody EGF (designed binder)
chain: MYSFEDLASHHHHHHGDLGPQMLRELQETNAALQDVRDYLRQLVREITFLKNTVMECDACGMQQTSPPTPPTPSPSTPPTPSPRSNSDSECPLSHDGYCLHDGVCMYIEALDKYACNCVVGYIGERCQYRDLKWWELR
notes: also called p-EGF; P-EGF
As for B1, the binding result is on record as “binds”.
